This data set has as its system Escherichia coli TOP10. Nature of the data set: shrunken log2 fold change of peptide-encoding DNA abundance (4.5 h post-induction vs induction); higher = less antimicrobial activity (less host growth inhibition). As to conditions: time post-induction: 4.5 h; library: site-saturation at positions 5, 18, 19, 20.
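Also: peptides expressed intracellularly from a pBAD plasmid library in pooled LB shake-flask culture, induced with 0.3% L-arabinose, DNA abundance read by NGS, three biological replicates, DESeq2 with apeglm shrinkage.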

With RRIRVRPPRLPRPRPRPVGSPRP, the “shrunken log2 fold change” value came out at 0.289.
The value for RRIRKRPPRLPRPRPRPEFNPRP was 0.15; that for RRIRGRPPRLPRPRPRPNNAPRP was 0.0616.
RRIRPRPPRLPRPRPRPPFWPRP: the “shrunken log2 fold change” value is 0.767.
Turning to RRIRIRPPRLPRPRPRPYLDPRP, the “shrunken log2 fold change” value is -1.02.
The value for RRIRGRPPRLPRPRPRPSLFPRP was 0.442.
The value for RRIRLRPPRLPRPRPRPLAAPRP was 0.345.
The value for RRIRLRPPRLPRPRPRPFTPPRP was -0.265; that for RRIRDRPPRLPRPRPRPRWVPRP was 0.263.
Turning to RRIRARPPRLPRPRPRPLDPPRP, the “shrunken log2 fold change” value was determined as 0.244.
The value for RRIRWRPPRLPRPRPRPSLGPRP was 0.338.
Take RRIRARPPRLPRPRPRPDSKPRP: the “shrunken log2 fold change” value amounted to 0.149.
The value for RRIRHRPPRLPRPRPRPSMPPRP was -0.0929; that for RRIRGRPPRLPRPRPRPFKLPRP was -0.167.
The value for RRIRQRPPRLPRPRPRPCMDPRP was 0.00489; that for RRIRVRPPRLPRPRPRPQRCPRP was 0.00942; that for RRIRKRPPRLPRPRPRPPEGPRP was 1.08.
The value for RRIRRRPPRLPRPRPRPACGPRP was 0.429.
In the case of RRIRWRPPRLPRPRPRPKALPRP, the “shrunken log2 fold change” value came to 0.237.
Regarding RRIRSRPPRLPRPRPRPDSYPRP, the “shrunken log2 fold change” value was -0.221.
As for RRIRFRPPRLPRPRPRPRIFPRP, the “shrunken log2 fold change” value was -0.102.
For the sequence RRIRRRPPRLPRPRPRPAYKPRP, the “shrunken log2 fold change” value was 0.0139.
The value for RRIRKRPPRLPRPRPRPRPCPRP was 0.365; that for RRIRVRPPRLPRPRPRPIPSPRP was -0.165.
The value for RRIRSRPPRLPRPRPRPGIYPRP was -0.135; that for RRIRCRPPRLPRPRPRPTWCPRP was -0.0117.
For RRIRMRPPRLPRPRPRPIIMPRP, the “shrunken log2 fold change” value was -0.46.
Consider RRIRKRPPRLPRPRPRPVWHPRP, for which the “shrunken log2 fold change” value stood at 0.0861.
The value for RRIRYRPPRLPRPRPRPMAIPRP was -0.0433; that for RRIRSRPPRLPRPRPRPWYIPRP was -0.314.
Take RRIRIRPPRLPRPRPRPMFAPRP: the “shrunken log2 fold change” value was -0.00719.
Turning to RRIRWRPPRLPRPRPRPDLGPRP, the “shrunken log2 fold change” value is -0.135.
The value for RRIRKRPPRLPRPRPRPAIYPRP was -0.109; that for RRIRNRPPRLPRPRPRPNNAPRP was 0.0167; that for RRIRNRPPRLPRPRPRPLQEPRP was -0.0474.
In the case of RRIRDRPPRLPRPRPRPLQPPRP, the “shrunken log2 fold change” value came out at 0.467.
The value for RRIRARPPRLPRPRPRPDAEPRP was 1.63.
The value for RRIRKRPPRLPRPRPRPSEVPRP was -0.524.
The value for RRIRGRPPRLPRPRPRPWIMPRP was -0.209; that for RRIRYRPPRLPRPRPRPQFDPRP was -0.0286; that for RRIRHRPPRLPRPRPRPKMHPRP was -0.0718.
Consider RRIRTRPPRLPRPRPRPFWHPRP, for which the “shrunken log2 fold change” value amounted to 0.23.
The value for RRIRPRPPRLPRPRPRPMLYPRP was -0.0392.
Consider RRIRCRPPRLPRPRPRPIDDPRP, for which the “shrunken log2 fold change” value is -0.0196.
Take RRIRSRPPRLPRPRPRPVCIPRP: the “shrunken log2 fold change” value is -0.414.
The value for RRIRPRPPRLPRPRPRPHRRPRP was -0.0778; that for RRIRDRPPRLPRPRPRPHYWPRP was -0.282.
The value for RRIRHRPPRLPRPRPRPFIAPRP was -0.272; that for RRIRIRPPRLPRPRPRPPNYPRP was -0.923.
The value for RRIRRRPPRLPRPRPRPNFKPRP was 0.092; that for RRIRGRPPRLPRPRPRPFCTPRP was 0.157; that for RRIRIRPPRLPRPRPRPSRWPRP was 0.324.
Regarding RRIRQRPPRLPRPRPRPVFCPRP, the “shrunken log2 fold change” value was found to be 0.0139.
Turning to RRIRLRPPRLPRPRPRPNAWPRP, the “shrunken log2 fold change” value is 0.0821.
Regarding RRIRCRPPRLPRPRPRPHPEPRP, the “shrunken log2 fold change” value was -0.168.
As to RRIRVRPPRLPRPRPRPNTWPRP, the “shrunken log2 fold change” value is -0.197.
The value for RRIRLRPPRLPRPRPRPRPIPRP was 0.384; that for RRIRKRPPRLPRPRPRPTIMPRP was -0.0223.
The value for RRIRMRPPRLPRPRPRPGSQPRP was 0.926; that for RRIRLRPPRLPRPRPRPEHTPRP was 0.0956; that for RRIRIRPPRLPRPRPRPSTYPRP was -1.63.
The value for RRIRQRPPRLPRPRPRPGGLPRP was 0.28; that for RRIRHRPPRLPRPRPRPMQGPRP was -0.0154.
As for RRIRKRPPRLPRPRPRPKYVPRP, the “shrunken log2 fold change” value is 0.0381.
The value for RRIRTRPPRLPRPRPRPHRAPRP was 0.0171; that for RRIRSRPPRLPRPRPRPGPDPRP was 0.332; that for RRIRERPPRLPRPRPRPTTEPRP was -0.0421.
For RRIRSRPPRLPRPRPRPCVAPRP, the “shrunken log2 fold change” value was 0.0901.
As for RRIRQRPPRLPRPRPRPYDVPRP, the “shrunken log2 fold change” value was -0.00663.
The value for RRIRMRPPRLPRPRPRPGSIPRP was 0.239; that for RRIRQRPPRLPRPRPRPQAEPRP was 4.1.
As to RRIRHRPPRLPRPRPRPPQAPRP, the “shrunken log2 fold change” value came out at 0.236.
The value for RRIRQRPPRLPRPRPRPWVRPRP was -0.112.
Regarding RRIRWRPPRLPRPRPRPCSFPRP, the “shrunken log2 fold change” value is 0.0624.
The value for RRIRWRPPRLPRPRPRPFHPPRP was -0.138.
The value for RRIRERPPRLPRPRPRPIMVPRP was -0.023; that for RRIRVRPPRLPRPRPRPTENPRP was 0.00381; that for RRIRRRPPRLPRPRPRPYMNPRP was -0.621.
The value for RRIRRRPPRLPRPRPRPPCPPRP was 0.641.
With RRIRVRPPRLPRPRPRPHAFPRP, the “shrunken log2 fold change” value amounted to 0.0978.
The value for RRIRPRPPRLPRPRPRPCDQPRP was -0.758.
The value for RRIRHRPPRLPRPRPRPPDPPRP was 0.832; that for RRIRARPPRLPRPRPRPMQVPRP was 0.277.
The value for RRIRQRPPRLPRPRPRPLMNPRP was -0.131; that for RRIRGRPPRLPRPRPRPFMWPRP was 0.211; that for RRIRFRPPRLPRPRPRPDEMPRP was -0.0134.
In the case of RRIRIRPPRLPRPRPRPKKNPRP, the “shrunken log2 fold change” value is -0.249.
The value for RRIRFRPPRLPRPRPRPEHCPRP was -0.0154; that for RRIRDRPPRLPRPRPRPSKEPRP was -0.031.
The value for RRIRGRPPRLPRPRPRPSPYPRP was -0.148.
The value for RRIRDRPPRLPRPRPRPHPQPRP was 0.256; that for RRIRFRPPRLPRPRPRPIQMPRP was -0.0945; that for RRIRTRPPRLPRPRPRPTQWPRP was 0.364.
For the sequence RRIRIRPPRLPRPRPRPCSVPRP, the “shrunken log2 fold change” value was -0.466.
Consider RRIRMRPPRLPRPRPRPRCYPRP, for which the “shrunken log2 fold change” value is -0.00529.
For the sequence RRIRSRPPRLPRPRPRPICHPRP, the “shrunken log2 fold change” value was -0.179.
Regarding RRIRMRPPRLPRPRPRPRPRPRP, the “shrunken log2 fold change” value was 1.68.
The value for RRIRYRPPRLPRPRPRPYRTPRP was -0.588; that for RRIRSRPPRLPRPRPRPIAAPRP was 0.333.
The value for RRIRQRPPRLPRPRPRPMVRPRP was -0.17; that for RRIRNRPPRLPRPRPRPLYWPRP was -0.437; that for RRIRQRPPRLPRPRPRPPWHPRP was 0.187.
The value for RRIRYRPPRLPRPRPRPNSSPRP was 0.0291; that for RRIRFRPPRLPRPRPRPPLLPRP was -0.0704; that for RRIRPRPPRLPRPRPRPQSHPRP was -0.291.
As for RRIRARPPRLPRPRPRPPRVPRP, the “shrunken log2 fold change” value came out at 0.875.
In the case of RRIRIRPPRLPRPRPRPLDDPRP, the “shrunken log2 fold change” value was found to be 0.0241.
For the sequence RRIRLRPPRLPRPRPRPMTVPRP, the “shrunken log2 fold change” value was -0.108.
The value for RRIRIRPPRLPRPRPRPTAEPRP was -0.0333; that for RRIRSRPPRLPRPRPRPNIKPRP was -0.491; that for RRIRLRPPRLPRPRPRPPHYPRP was 0.0636.
The value for RRIRWRPPRLPRPRPRPTMAPRP was 0.449; that for RRIRPRPPRLPRPRPRPRDGPRP was 0.694.
Turning to RRIRPRPPRLPRPRPRPQGQPRP, the “shrunken log2 fold change” value came out at 0.0372.
The value for RRIRCRPPRLPRPRPRPSYMPRP was -0.646.
For the sequence RRIRFRPPRLPRPRPRPFALPRP, the “shrunken log2 fold change” value is -0.00558.
As to RRIRYRPPRLPRPRPRPRPLPRP, the “shrunken log2 fold change” value was -0.3.
Consider RRIRDRPPRLPRPRPRPPFAPRP, for which the “shrunken log2 fold change” value was found to be 0.427.
Regarding RRIRFRPPRLPRPRPRPNTRPRP, the “shrunken log2 fold change” value was -0.39.
On to RRIRCRPPRLPRPRPRPSKWPRP, for which the “shrunken log2 fold change” value is -0.0391.
The value for RRIRPRPPRLPRPRPRPKHNPRP was -0.303; that for RRIRKRPPRLPRPRPRPGQTPRP was 0.611; that for RRIRERPPRLPRPRPRPAHCPRP was 0.0518.
The value for RRIRDRPPRLPRPRPRPSYCPRP was -0.046; that for RRIRSRPPRLPRPRPRPLYPPRP was -0.813.

For the origin of these results see the supplement of paper PMC9112550, “Optimization of the antimicrobial peptide Bac7 by deep mutational scanning” (BMC Biology, 2022).
